{"source": "the RNAGym collection of RNA variant scans (doi:10.7554/elife.80360)", "parents": {"B1": {"name": "HDV Ribozyme (parent)", "chain": "GGCCGGCAUGGUCCCAGCCUCCUCGCUGGCGCCGGCUGGGCAACAUUCCGAGGGGACCGUCCCCUCGGUAAUGGCGAAUGGGACCCA"}}}
{"variants_of": "B1", "assay": "self-cleavage, relative activity (ratio to wild type); higher = more cleavage; co-transcriptional"}
{"variant": "AGCCGGCAUGGUCCCAGCCUCCUCGCUGGCGCCGGCUGGGCAACAUUCCGAGGGGACCGUCCCCCCGGUAAUGGCGAAUGGGACCCA", "self-cleavage": 0.0875}
{"variant": "AGCCGGCAUGGUCCCAGCCUCCUCGCUGGCGCCGGCUGCGCAACAUUCCGAGGGGACCGUCCCCUCGGUAAUGGCGAAUGGGACCCA", "self-cleavage": 0}
{"variant": "AGCCGGCAUGGUCCCAGCCUCCUCGCUGGCGCCCGCUGGGCAACAUUCCGAGGGGACCGUCCCCUCGGUAAUGGCGAAUGGGACCCA", "self-cleavage": 0}
{"variant": "AGCCGGCAUGGUCCCAGCCUCCUCGCUGGCGCCAGCUGGGCAACAUUCCGAGGGGACCGUCCCCUCGGUAAUGGCGAAUGGGACCCA", "self-cleavage": 0.136}
{"variant": "AGCCGGCAUGGUCCCAGCCUCCUCGCUGGCGCCGGCUGGGCAACAUUCCGAGGGGACCGUCCCCUCGGUAAUGGCCAAUGGGACCCA", "self-cleavage": 0.185}
{"variant": "AGCCGGCAUGGUCCCAGCCUCCUCGCUGGCGCCGGCUGGGCAACAUUCCGAGGGGACCGUCCCCUCGGUAAUGGCAAAUGGGACCCA", "self-cleavage": 0.462}
{"variant": "AGCCGGCAUGGUCCCAGCCUCCUCGCUGGCGCCGGCUGGGCAACAUUCCGAGGGGACCGUCCCCUCGGUAAUGGCUAAUGGGACCCA", "self-cleavage": 0.185}
{"variant": "AGCCGGCAUGGUCCCAGCCUCCUCGCUGCCGCCGGCUGGGCAACAUUCCGAGGGGACCGUCCCCUCGGUAAUGGCGAAUGGGACCCA", "self-cleavage": 0.181}
{"variant": "AGCCGGCAUGGUCCCAGCCUCCUCGCUGGCGCCGGCUGGGCAACAUGCCGAGGGGACCGUCCCCUCGGUAAUGGCGAAUGGGACCCA", "self-cleavage": 0}
{"variant": "AGCCGGCAUGGUCCCAGCCUCCUCGCUGGCGCCGGCUGGGCAACAUCCCGAGGGGACCGUCCCCUCGGUAAUGGCGAAUGGGACCCA", "self-cleavage": 0.128}
{"variant": "AGCCGGCAUGGUCCCAGCCUCCUCGCUGGCGCCGGCUGGGCAACAUACCGAGGGGACCGUCCCCUCGGUAAUGGCGAAUGGGACCCA", "self-cleavage": 0.145}
{"variant": "AGCCGGCAUGGUCCCAGCCUCCUCGCUGGCGCCGGCUGGGCAACAUUCCGAAGGGACCGUCCCCUCGGUAAUGGCGAAUGGGACCCA", "self-cleavage": 0.138}
{"variant": "AGCCGGCAUCGUCCCAGCCUCCUCGCUGGCGCCGGCUGGGCAACAUUCCGAGGGGACCGUCCCCUCGGUAAUGGCGAAUGGGACCCA", "self-cleavage": 0.35}
{"variant": "AGCCGGCAUAGUCCCAGCCUCCUCGCUGGCGCCGGCUGGGCAACAUUCCGAGGGGACCGUCCCCUCGGUAAUGGCGAAUGGGACCCA", "self-cleavage": 0.151}
{"variant": "AGCCGGCAUUGUCCCAGCCUCCUCGCUGGCGCCGGCUGGGCAACAUUCCGAGGGGACCGUCCCCUCGGUAAUGGCGAAUGGGACCCA", "self-cleavage": 0.153}
{"variant": "AGCCGGCAUGGUCCCAGCCUCCUCGCUGGCACCGGCUGGGCAACAUUCCGAGGGGACCGUCCCCUCGGUAAUGGCGAAUGGGACCCA", "self-cleavage": 0.131}
{"variant": "AGCCGGCAUGGUCCCAGCCUCCUCGCUGGCCCCGGCUGGGCAACAUUCCGAGGGGACCGUCCCCUCGGUAAUGGCGAAUGGGACCCA", "self-cleavage": 0.0292}
{"variant": "AGCCGGCAUGGUCCCAGCCUCCUCGCUGGCUCCGGCUGGGCAACAUUCCGAGGGGACCGUCCCCUCGGUAAUGGCGAAUGGGACCCA", "self-cleavage": 0}
{"variant": "AGCCGGCAUGGUCCCAGCCUCCUCGCUGGCGCCGGCUGGGCAACAUUCCGAGGGGACCGUCCCCUCGGUAAUGGCGAAUGGGAACCA", "self-cleavage": 0}
{"variant": "AGCCGGCAUGGUCCCAGCCUCCUCGCUGGCGCCGGCUGGGCAACAUUCCGAGGGGACCGUCCCCUCGGUAAUGGCGAAUGGGAUCCA", "self-cleavage": 0.229}
{"variant": "AGCCGGCAUGGUCCCAGCCUCCUCGCUGGCGCCGGCUGGGCAACAUUCCGAGGGGACCGUCCCCUCGGUAAUGGCGAAUGGGAGCCA", "self-cleavage": 0.0978}
{"variant": "AGCCGGCAUGGUCCCAGCCUCCCCGCUGGCGCCGGCUGGGCAACAUUCCGAGGGGACCGUCCCCUCGGUAAUGGCGAAUGGGACCCA", "self-cleavage": 0}
{"variant": "AGCCGGCAUGGUCCCAGCCUCCUCUCUGGCGCCGGCUGGGCAACAUUCCGAGGGGACCGUCCCCUCGGUAAUGGCGAAUGGGACCCA", "self-cleavage": 0.0462}
{"variant": "AGCCGGCAUGGUCCCAGCCUCCUCACUGGCGCCGGCUGGGCAACAUUCCGAGGGGACCGUCCCCUCGGUAAUGGCGAAUGGGACCCA", "self-cleavage": 0.0739}
{"variant": "AGCCGGCAUGGACCCAGCCUCCUCGCUGGCGCCGGCUGGGCAACAUUCCGAGGGGACCGUCCCCUCGGUAAUGGCGAAUGGGACCCA", "self-cleavage": 0.0415}
{"variant": "AGCCGGCAUGGUCCCAGCCUCCUCGCUGGCGCCGGCUGGGCAACAUUCCGAGGGGACCGUCCCCUCGAUAAUGGCGAAUGGGACCCA", "self-cleavage": 0.101}
{"variant": "AGCCGGCAUGGUCCCAGCCUCCUCGCUGGCGCCGGCUGGGCAACAUUCCGAGGGGACCGUCCCCUCGCUAAUGGCGAAUGGGACCCA", "self-cleavage": 0.0978}
{"variant": "AGCCGGCAUGGUCCCAGCCUCCUCGCUAGCGCCGGCUGGGCAACAUUCCGAGGGGACCGUCCCCUCGGUAAUGGCGAAUGGGACCCA", "self-cleavage": 0.0332}
{"variant": "AGCCGGCAUGGUCCCAGCCUCCUCGCUGGCGCCGGCUCGGCAACAUUCCGAGGGGACCGUCCCCUCGGUAAUGGCGAAUGGGACCCA", "self-cleavage": 0.0405}
{"variant": "AGCCGGCAUGGUCCCAGCCUCCUCGCUGGCGCCGGCUGGGCAACAUUCCGAGGGGACCGUCCCCUCGGUAAUGUCGAAUGGGACCCA", "self-cleavage": 0.0563}
{"variant": "AGCCGGCAUGGUCCCAGCCUCCUCGCUGGCGCCGGCUGGGCAACAUUCCGAGGGGACCGUCCCCUCGGUAAUGCCGAAUGGGACCCA", "self-cleavage": 0}
{"variant": "AGCCGGCAUGGUCCCAGCCUCCUCGCUGGCGCCGGCUGGGCAACAUUCCGAGGGCACCGUCCCCUCGGUAAUGGCGAAUGGGACCCA", "self-cleavage": 0.115}
